System: cells of the human embryonic stem cell line H1 differentiated to stage 5
Assay: Immunostaining for insulin protein expression at the end of Stage 5
Assay type: cell-based
Details: 50 or 100 ng/ml for three days at stage 5, immunostaining vs control; FIG. 2, FIG. 3
Description: Cells of the human embryonic stem cell line H1 (hESC H1, passage 40) were seeded as single cells at 1×10^5 cells/cm^2 on MATRIGEL™ (1:30 dilution; BD Biosciences, NJ)-coated dishes in mTeSR®1 media supplemented with 10 μM of Y27632. Forty-eight hours post seeding, cultures were washed in incomplete PBS (phosphate buffered saline without Mg or Ca). Cultures were differentiated into pancreatic endoderm/endocrine lineages as follows: • a) Stage 1 (Definitive Endoderm (DE)—3 days): Cells were cultured for one day in stage 1 media (see Example 1, above). Cells were then cultured for an additional day in MCDB-131 medium supplemented with 0.1% fatty acid-free BSA, 0.0012 g/ml sodium bicarbonate, 1× GlutaMax™, 4.5 mM D-Glucose, 100 ng/ml GDF8, and 0.1 μM MCX compound. […]

B1: Ephrin-A4: Ephrin ligand protein, R & D Systems catalogue number 369-EA (protein, UniProt P52798 26-170, looked up)
Ephrin-A4: LRHVVYWNSSNPRLLRGDAVVELGLNDYLDIVCPHYEGPGPPEGPETFALYMVDWPGYESCQAEGPRAYKRWVCSLPFGHVQFSEKIQRFTPFSLGFEFLPGETYYYISVPTPESSGQCLRLQVSVCCKERKSESAHPVGSPGES
protein expression of insulin: significantly enhanced

From patent US10208288B2, “Differentiation of human embryonic stem cells into pancreatic endocrine cells” (Janssen Biotech, Inc., priority 2012, dated 2019)
